T1: mouse CD137 expressed on cells (mouse, UniProt P20334 24-256)
T1 construct: whole, on cells
T1 sequence (looked up): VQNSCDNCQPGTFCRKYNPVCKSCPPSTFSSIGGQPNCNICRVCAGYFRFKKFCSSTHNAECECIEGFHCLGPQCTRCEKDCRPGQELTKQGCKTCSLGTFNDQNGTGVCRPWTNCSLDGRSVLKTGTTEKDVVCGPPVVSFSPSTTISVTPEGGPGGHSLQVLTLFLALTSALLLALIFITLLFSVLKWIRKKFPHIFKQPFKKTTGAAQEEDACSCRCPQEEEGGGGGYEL


Key:
[1] = molecular target: T2, Human PDL1 (SPR analyte) (human, UniProt Q9NZQ7 19-238, limits assumed); assay: SPR (Biacore T200), antibody captured by anti-human IgG on CM5 chip, antigen injected as analyte, 1:1 Langmuir fit
T2 construct: also called PDL1H
Method: (§1) Biacore T200 (GE Healthcare) was used as a high performance system for real-time biomolecular interaction analysis, using surface plasmon resonance technology (“SPR”). During the measurement, anti-human IgG monoclonal antibody from the Human Antibody Capture Kit provided by Biacore was immobilized on CM5 chips, and IgG sample was injected onto sensor chip. Analytes were injected onto IgG captured flow cell for binding kinetic analysis in HBS-EP buffer.

[2] = molecular target: T3, Human CD137 (SPR analyte) (human, UniProt Q07011 24-186, limits assumed); assay: as above
T3 construct: also called CD137H
Method: as §1

[3] = molecular target: T4, mouse PDL1 expressed on cells (mouse, UniProt Q9EP73 19-290); assay: flow cytometry, antigen transiently expressed on yeast or HEK293F cells, IgG at 100 nM, Alexa Fluor 647 anti-human Fc detection (FIG. 13)
T4 construct: whole, on cells
Method: (§2) The affinity of antibodies was also assessed against human, monkey and mouse CD137 or PDL1 that were transiently expressed on the surface of yeast or HEK293F cells. Briefly, yeast or HEK293F cells were transfected with a plasmid expressing human, monkey or mouse CD137 or PDL1. After 48 hours, the transfected cells were harvested and then washed. Cells were then incubated with IgGs (each at 100 nM) at 4° C. in the shaking bed for 1 hour shaking at 300 rpm, protected from light. For simultaneously binding, cell were incubated with biotinylated human CD137 or PDL1 protein fused with human Fc fragment, and SA-PE (streptavidin, phycoerythrin conjugated). For cross-reactivity, cells were incubated with Alexa Fluor 647 conjugated mouse anti-human Fc antibodies. The mixtures were incubated at 4° C. in the shaking bed for 30 minutes shaking at 300 rpm, protected from light. The cells were washed once prior to analysis by flow cytometry (Beckman CytoFlex).

[4] = molecular target: T1, mouse CD137 expressed on cells; assay: as above
Method: as §2

T2 sequence (Q9NZQ7 19-238 limits assumed): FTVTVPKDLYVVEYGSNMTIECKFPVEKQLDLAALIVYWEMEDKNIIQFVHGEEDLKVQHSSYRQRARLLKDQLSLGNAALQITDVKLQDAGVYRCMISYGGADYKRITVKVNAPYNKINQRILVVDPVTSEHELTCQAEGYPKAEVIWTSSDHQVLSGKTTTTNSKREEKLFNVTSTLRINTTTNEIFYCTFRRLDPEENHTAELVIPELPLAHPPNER
T4 sequence (Q9EP73 19-290): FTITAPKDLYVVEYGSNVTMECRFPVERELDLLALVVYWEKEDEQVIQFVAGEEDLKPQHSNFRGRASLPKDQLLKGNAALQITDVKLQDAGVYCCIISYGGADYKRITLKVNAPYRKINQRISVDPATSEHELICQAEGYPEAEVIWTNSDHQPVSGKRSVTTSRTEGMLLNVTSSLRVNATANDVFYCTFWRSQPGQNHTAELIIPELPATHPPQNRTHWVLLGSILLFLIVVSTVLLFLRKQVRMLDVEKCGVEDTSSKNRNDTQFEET

Binder	Kd [1] [nM]	Kd [2] [nM]	binding result [3]	binding result [4]
TY22177 (bispecific antibody, human IgG1, kappa, N297A, Morrison format: anti-CD137 Fab, anti-PDL1 scFv; IgG1 with N390C:S400'C and N297A; also called CD137 × PDL1 bispecific antibody, format TYF04) heavy: not shown light: EVQLVESGGGLVQPGGSLRLSCAASGFSLSTGGVGVGWIRQAPGKGLEWLALIDWADDKYYSPSLKSRLTISRDNSKNTLYLQLNSLRAEDTAVYYCARGGSDTVIGDWFAYWGQGTLVTVSSASTKGPSVFPLAPSSKSTSGGTAALGCLVKDYFPEPVTVSWNSGALTSGVHTFPAVLQSSGLYSLSSVVTVPSSSLGTQTYICNVNHKPSNTKVDKRVEPKSCDKTHTCPPCPAPELLGGPSVFLFPPKPKDTLMISRTPEVTCVVVDVSHEDPEVKFNWYVDGVEVHNAKTKPREEQYASTYRVVSVLTVLHQDWLNGKEYKCKVSNKALPAPIEKTISKAKGQPREPQVYTLPPSREEMTKNQVSLTCLVKGFYPSDIAVEWESNGQPENCYKTTPPVLDCDGSFFLYSKLTVDKSRWQQGNVFSCSVMHEALHNHYTQKSLSLSPGSGGGSEVQLVESGGGLVQPGGSLRLSCAASGYSISSGYYWGWIRQAPGKCLEWIGIIYPSGGGTNYAQKFQGRVTISRDNSKNTLYLQLNSLRAEDTAVYYCARGGGLGFDYWGQGTLVTVSSGGGGSGGGGSGGGGSGGGGSDIQLTQSPSSLSASVGDRVTITCRASQSIPSFLNWYQQKPGKAPKLLIYAASSLQSGVPSRFSGSGSGTDFTLTISSLQPEDFATYYCQHYISWPRQFTFGCGTKVEIKR	33.4	7		
TY22359 (bispecific antibody, human IgG1, kappa, N297A, Morrison format: anti-CD137 Fab, anti-PDL1 scFv; also called CD137 × PDL1 bispecific antibody, format TYF05; Format 5) heavy: not shown light: EVQLVESGGGLVQPGGSLRLSCAASGFSLSTGGVGVGWIRQAPGKGLEWLALIDWADDKYYSPSLKSRLTISRDNSKNTLYLQLNSLRAEDTAVYYCARGGSDTVIGDWFAYWGQGTLVTVSSASTKGPSVFPLAPSSKSTSGGTAALGCLVKDYFPEPVTVSWNSGALTSGVHTFPAVLQSSGLYSLSSVVTVPSSSLGTQTYICNVNHKPSNTKVDKRVEPKSCDKTHTCPPCPAPELLGGPSVFLFPPKPKDTLMISRTPEVTCVVVDVSHEDPEVKFNWYVDGVEVHNAKTKPREEQYASTYRVVSVLTVLHQDWLNGKEYKCKVSNKALPAPIEKTISKAKGQPREPQVYTLPPSREEMTKNQVSLTCLVKGFYPSDIAVEWESNGQPENCYKTTPPVLDCDGSFFLYSKLTVDKSRWQQGNVFSCSVMHEALHNHYTQKSLSLSPGSGGGSGGGGSEVQLVESGGGLVQPGGSLRLSCAASGYSISSGYYWGWIRQAPGKCLEWIGIIYPSGGGTNYAQKFQGRVTISRDNSKNTLYLQLNSLRAEDTAVYYCARGGGLGFDYWGQGTLVTVSSGGGGSGGGGSGGGGSGGGGSDIQLTQSPSSLSASVGDRVTITCRASQSIPSFLNWYQQKPGKAPKLLIYAASSLQSGVPSRFSGSGSGTDFTLTISSLQPEDFATYYCQHYISWPRQFTFGCGTKVEIKR	29.8	2.7		
TY22362 (bispecific antibody, human IgG4 S228P, kappa, Morrison format: anti-CD137 Fab, anti-PDL1 scFv; also called CD137 × PDL1 bispecific antibody, format TYF08) heavy: not shown light: EVQLVESGGGLVQPGGSLRLSCAASGFSLSTGGVGVGWIRQAPGKGLEWLALIDWADDKYYSPSLKSRLTISRDNSKNTLYLQLNSLRAEDTAVYYCARGGSDTVIGDWFAYWGQGTLVTVSSASTKGPSVFPLAPCSRSTSESTAALGCLVKDYFPEPVTVSWNSGALTSGVHTFPAVLQSSGLYSLSSVVTVPSSSLGTKTYTCNVDHKPSNTKVDKRVESKYGPPCPPCPAPEFLGGPSVFLFPPKPKDTLMISRTPEVTCVVVDVSQEDPEVQFNWYVDGVEVHNAKTKPREEQFNSTYRVVSVLTVLHQDWLNGKEYKCKVSNKGLPSSIEKTISKAKGQPREPQVYTLPPSQEEMTKNQVSLTCLVKGFYPSDIAVEWESNGQPENCYKTTPPVLDCDGSFFLYSRLTVDKSRWQEGNVFSCSVMHEALHNHYTQKSLSLSLGSGGGSGGGGSEVQLVESGGGLVQPGGSLRLSCAASGYSISSGYYWGWIRQAPGKCLEWIGIIYPSGGGTNYAQKFQGRVTISRDNSKNTLYLQLNSLRAEDTAVYYCARGGGLGFDYWGQGTLVTVSSGGGGSGGGGSGGGGSGGGGSDIQLTQSPSSLSASVGDRVTITCRASQSIPSFLNWYQQKPGKAPKLLIYAASSLQSGVPSRFSGSGSGTDFTLTISSLQPEDFATYYCQHYISWPRQFTFGCGTKVEIKR	40.3	2.8		
TY22121 (bispecific antibody, human IgG1, kappa, Morrison format: anti-PDL1 Fab, anti-CD137 scFv at the C-terminus of the Fc; IgG1; heavy chain = VH-CH1-hinge-CH2-CH3-linker-scFv; also called PDL1 × CD137 bispecific antibody, format TYF01) heavy: DIQLTQSPSSLSASVGDRVTITCRASQSIPSFLNWYQQKPGKAPKLLIYAASSLQSGVPSRFSGSGSGTDFTLTISSLQPEDFATYYCQHYISWPRQFTFGQGTKVEIKRTVAAPSVFIFPPSDEQLKSGTASVVCLLNNFYPREAKVQWKVDNALQSGNSQESVTEQDSKDSTYSLSSTLTLSKADYEKHKVYACEVTHQGLSSPVTKSFNRGEC light: not shown	6.9	14.1	binds	binds
TY22165 (bispecific antibody, human IgG4 S228P, kappa, Morrison format: anti-PDL1 Fab, anti-CD137 scFv; IgG4(S228P) with N390C:S400'C; also called PDL1 × CD137 bispecific antibody, format TYF07) heavy: DIQLTQSPSSLSASVGDRVTITCRASQSIPSFLNWYQQKPGKAPKLLIYAASSLQSGVPSRFSGSGSGTDFTLTISSLQPEDFATYYCQHYISWPRQFTFGQGTKVEIKRTVAAPSVFIFPPSDEQLKSGTASVVCLLNNFYPREAKVQWKVDNALQSGNSQESVTEQDSKDSTYSLSSTLTLSKADYEKHKVYACEVTHQGLSSPVTKSFNRGEC light: EVQLVESGGGLVQPGGSLRLSCAASGYSISSGYYWGWIRQAPGKGLEWIGIIYPSGGGTNYAQKFQGRVTISRDNSKNTLYLQLNSLRAEDTAVYYCARGGGLGFDYWGQGTLVTVSSASTKGPSVFPLAPCSRSTSESTAALGCLVKDYFPEPVTVSWNSGALTSGVHTFPAVLQSSGLYSLSSVVTVPSSSLGTKTYTCNVDHKPSNTKVDKRVESKYGPPCPPCPAPEFLGGPSVFLFPPKPKDTLMISRTPEVTCVVVDVSQEDPEVQFNWYVDGVEVHNAKTKPREEQFNSTYRVVSVLTVLHQDWLNGKEYKCKVSNKGLPSSIEKTISKAKGQPREPQVYTLPPSQEEMTKNQVSLTCLVKGFYPSDIAVEWESNGQPENCYKTTPPVLDCDGSFFLYSRLTVDKSRWQEGNVFSCSVMHEALHNHYTQKSLSLSLGSGGGSEVQLVESGGGLVQPGGSLRLSCAASGFSLSTGGVGVGWIRQAPGKCLEWLALIDWADDKYYSPSLKSRLTISRDNSKNTLYLQLNSLRAEDTAVYYCARGGSDTVIGDWFAYWGQGTLVTVSSGGGGSGGGGSGGGGSGGGGSDIQLTQSPSSLSASVGDRVTITCRASQSIGSYLAWYQQKPGKAPKLLIYDASNLETGVPSRFSGSGSGTDFTLTISSLQPEDFATYYCQQGYYLWTFGCGTKVEIKR	7.7	5.2		
TY22176 (bispecific antibody, human IgG1, kappa, N297A, Morrison format: anti-PDL1 Fab, anti-CD137 scFv; IgG1 with N390C:S400'C and N297A; also called PDL1 × CD137 bispecific antibody, format TYF04) heavy: DIQLTQSPSSLSASVGDRVTITCRASQSIPSFLNWYQQKPGKAPKLLIYAASSLQSGVPSRFSGSGSGTDFTLTISSLQPEDFATYYCQHYISWPRQFTFGQGTKVEIKRTVAAPSVFIFPPSDEQLKSGTASVVCLLNNFYPREAKVQWKVDNALQSGNSQESVTEQDSKDSTYSLSSTLTLSKADYEKHKVYACEVTHQGLSSPVTKSFNRGEC light: EVQLVESGGGLVQPGGSLRLSCAASGYSISSGYYWGWIRQAPGKGLEWIGIIYPSGGGTNYAQKFQGRVTISRDNSKNTLYLQLNSLRAEDTAVYYCARGGGLGFDYWGQGTLVTVSSASTKGPSVFPLAPSSKSTSGGTAALGCLVKDYFPEPVTVSWNSGALTSGVHTFPAVLQSSGLYSLSSVVTVPSSSLGTQTYICNVNHKPSNTKVDKRVEPKSCDKTHTCPPCPAPELLGGPSVFLFPPKPKDTLMISRTPEVTCVVVDVSHEDPEVKFNWYVDGVEVHNAKTKPREEQYASTYRVVSVLTVLHQDWLNGKEYKCKVSNKALPAPIEKTISKAKGQPREPQVYTLPPSREEMTKNQVSLTCLVKGFYPSDIAVEWESNGQPENCYKTTPPVLDCDGSFFLYSKLTVDKSRWQQGNVFSCSVMHEALHNHYTQKSLSLSPGSGGGSEVQLVESGGGLVQPGGSLRLSCAASGFSLSTGGVGVGWIRQAPGKCLEWLALIDWADDKYYSPSLKSRLTISRDNSKNTLYLQLNSLRAEDTAVYYCARGGSDTVIGDWFAYWGQGTLVTVSSGGGGSGGGGSGGGGSGGGGSDIQLTQSPSSLSASVGDRVTITCRASQSIGSYLAWYQQKPGKAPKLLIYDASNLETGVPSRFSGSGSGTDFTLTISSLQPEDFATYYCQQGYYLWTFGCGTKVEIKR	8.1	7.1		
TY22166 (bispecific antibody, human IgG4 S228P, kappa, Morrison format: anti-CD137 Fab, anti-PDL1 scFv; IgG4(S228P) with N390C:S400'C; also called CD137 × PDL1 bispecific antibody, format TYF07) heavy: not shown light: EVQLVESGGGLVQPGGSLRLSCAASGFSLSTGGVGVGWIRQAPGKGLEWLALIDWADDKYYSPSLKSRLTISRDNSKNTLYLQLNSLRAEDTAVYYCARGGSDTVIGDWFAYWGQGTLVTVSSASTKGPSVFPLAPCSRSTSESTAALGCLVKDYFPEPVTVSWNSGALTSGVHTFPAVLQSSGLYSLSSVVTVPSSSLGTKTYTCNVDHKPSNTKVDKRVESKYGPPCPPCPAPEFLGGPSVFLFPPKPKDTLMISRTPEVTCVVVDVSQEDPEVQFNWYVDGVEVHNAKTKPREEQFNSTYRVVSVLTVLHQDWLNGKEYKCKVSNKGLPSSIEKTISKAKGQPREPQVYTLPPSQEEMTKNQVSLTCLVKGFYPSDIAVEWESNGQPENCYKTTPPVLDCDGSFFLYSRLTVDKSRWQEGNVFSCSVMHEALHNHYTQKSLSLSLGSGGGSEVQLVESGGGLVQPGGSLRLSCAASGYSISSGYYWGWIRQAPGKCLEWIGIIYPSGGGTNYAQKFQGRVTISRDNSKNTLYLQLNSLRAEDTAVYYCARGGGLGFDYWGQGTLVTVSSGGGGSGGGGSGGGGSGGGGSDIQLTQSPSSLSASVGDRVTITCRASQSIPSFLNWYQQKPGKAPKLLIYAASSLQSGVPSRFSGSGSGTDFTLTISSLQPEDFATYYCQHYISWPRQFTFGCGTKVEIKR	42	3		

— patent US20230124669A1 (ADAGENE, published 2023)
